Reference: article PMC11300603

What was measured:
[1] = target: CpaF from C. crescentus (C. crescentus NA1000); test: cryo-EM structure; 5 mg/mL CpaF with 4 mM AMPPNP, 5 mM MgSO4 in total, 8 mM CHAPSO, 45 min at room temperature before vitrification; single particle, C2 symmetry
[2] = target: CpaF from C. crescentus (C. crescentus NA1000); test: cryo-EM structure; 5 mg/mL CpaF without nucleotide addition, in the presence of Mg2+, 8 mM CHAPSO; single particle, C2 symmetry
[3] = target: CpaF from C. crescentus (C. crescentus NA1000); test: cryo-EM structure; 5 mg/mL CpaF with 4 mM ADP, 5 mM MgSO4 in total, 8 mM CHAPSO, 45 min at room temperature before vitrification; single particle, C2 symmetry

Measured: stoichiometry N

CpaF from C. crescentus (enzyme)
6: all assays above
